Data on 78 sequences can be found in the supplement of paper PMC7877785.

± gives the uncertainty stated by the source.

The series is described as follows: self-splicing fitness, log relative to wild type (ln ratio); higher = more splicing; Tetrahymena group I intron in knt gene, E. coli kanamycin selection, DiMSum; sequences stand for … in CUCUCU…GGAGGGAAAAGUUAUCAGGCAUGCACCUGGUAGCUAGUCUUUAAACCAAUAGAUUGCAUCGGUUUAAAAGGCAAGACCGUCAAAUUGCGGGAAAGGGGUCAACAGCCGUUCAGUACCAAGUCUCAGGGGAAACUUUGAGAUGGCCUUGCAAAGGGUAUGGUAAUAAGCUGACGGACAUGGUCCUAACCACGCAGCCAAGUCCUAAGUCAACAGAUCUUCUGUUGAUAUGGAUGCAGUUCACAGACUAAAUGUCGGUCGGGGAAGAUGUAUUCUUCUCAUAAGAUAUAGUCGGACCUCUCCUUAAUGGGAGCUAGCGGAUGAAGUGAUGCAACACUGGAGCCGCUGGGAACUAAUUUGUAUGCGAAAGUAUAUUGAUUAGUUUUGGAGUACUCGUGGUCG
The method, boiled down: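 Pooled colonies went to amplicon sequencing on an Illumina HiSeq 2500 after six replicate transformations. The plates were LB agar with 100 μg/mL carbenicillin, 50 μM IPTG and 0.2% rhamnose, with or without 25 μg/mL kanamycin, incubated overnight at 37°C or 30°C. The E. coli BL21(DE3) library had all eight P1ex-region intron nucleotides randomised, the intron placed in the knt kanamycin-resistance gene on pET-22b(+). DiMSum fitness is the error-weighted combination of replicate fold changes, kanamycin against none, normalised to wild type.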

With UCCUAGCAAUAUUACGUACA, the “self-splicing fitness (ln)” value by setting is: (30 °C) -2.45 ± 0.27; (37 °C) -0.735 ± 0.16.
The matching figures for CAGCAGCAAUAUUACGUCUU: -0.473 ± 0.053 and 0.3 ± 0.07.
For CGCGAGCAAUAUUACGAAAG, in that order: -2.75 ± 0.26 and -1.65 ± 0.23.
For GUCCAGCAAUAUUACGAUCC, in that order: -0.959 ± 0.087 and -0.16 ± 0.11.
Take GGGGAGCAAUAUUACGCGCG: the “self-splicing fitness (ln)” value (30 °C) was -1.83 ± 0.15 and the “self-splicing fitness (ln)” value (37 °C) was -0.952 ± 0.17.
For UCGCAGCAAUAUUACGAUGA, in that order: -0.691 ± 0.072 and 0.0326 ± 0.081.
Consider GCAAAGCAAUAUUACGUUCG, for which the “self-splicing fitness (ln)” value is -1.51 ± 0.08 (30 °C) and -0.192 ± 0.12 (37 °C).
For UCAGAGCAAUAUUACGUGAG, in that order: -0.959 ± 0.054 and -0.838 ± 0.081.
The matching figures for UGUAAGCAAUAUUACGACGC: -2.61 ± 0.36 and -1.61 ± 0.3.
The matching figures for CGUAAGCAAUAUUACGGCAU: -3.27 ± 0.27 and -2.37 ± 0.15.
Turning to UUCUAGCAAUAUUACGGUUC, the “self-splicing fitness (ln)” value is, setting by setting: (30 °C) -2.74 ± 0.26; (37 °C) -2.44 ± 0.27.
The matching figures for UUAUAGCAAUAUUACGAAGG: -3.25 ± 0.39 and -1.67 ± 0.33.
Turning to AUGGAGCAAUAUUACGUGUG, the “self-splicing fitness (ln)” value (37 °C) is -2.69 ± 0.24.
In the case of ACGUAGCAAUAUUACGUCUG, the “self-splicing fitness (ln)” value was -2.47 ± 0.16 (30 °C) and -2.71 ± 0.19 (37 °C).
The matching figures for GCGAAGCAAUAUUACGAUUU: -1.09 ± 0.057 and -0.156 ± 0.075.
For AGACAGCAAUAUUACGGAUU, in that order: -2.55 ± 0.088 and -1.45 ± 0.089.
For UAAUAGCAAUAUUACGAGGC, in that order: -3.59 ± 0.35 and -1.46 ± 0.33.
On to UACCAGCAAUAUUACGAAAA, for which the “self-splicing fitness (ln)” value by setting is: (30 °C) -1.43 ± 0.17; (37 °C) -1.11 ± 0.13.
In the case of AACUAGCAAUAUUACGCUCG, the “self-splicing fitness (ln)” value (30 °C) was -0.797 ± 0.1 and the “self-splicing fitness (ln)” value (37 °C) was -0.51 ± 0.13.
For CCACAGCAAUAUUACGCAAC, in that order: -2.45 ± 0.36 and -1.79 ± 0.33.
For GAAUAGCAAUAUUACGGAGC, the “self-splicing fitness (ln)” value (30 °C) is -3.44 ± 0.26 and the “self-splicing fitness (ln)” value (37 °C) was -1.77 ± 0.21.
In the case of CGGGAGCAAUAUUACGGCAA, the “self-splicing fitness (ln)” value (30 °C) was -3.64 ± 0.43.
Consider UACUAGCAAUAUUACGGGCU, for which the “self-splicing fitness (ln)” value is -3.52 ± 0.28 (30 °C) and -2.87 ± 0.34 (37 °C).
For AACAAGCAAUAUUACGGCCA, in that order: -0.5 ± 0.077 and -0.412 ± 0.092.
Consider GGGUAGCAAUAUUACGCUCG, for which the “self-splicing fitness (ln)” value runs as follows: (30 °C) -0.269 ± 0.13; (37 °C) -0.258 ± 0.16.
On to GCUAAGCAAUAUUACGUUCC, for which the “self-splicing fitness (ln)” value (30 °C) is -1.14 ± 0.087 and the “self-splicing fitness (ln)” value (37 °C) is -0.467 ± 0.14.
For ACUUAGCAAUAUUACGUCGG, in that order: -2.34 ± 0.14 and -1.59 ± 0.17.
For AAGAAGCAAUAUUACGCUAA, in that order: -1.69 ± 0.14 and -0.682 ± 0.15.
For UUAUAGCAAUAUUACGGACG, in that order: -1.25 ± 0.38 and -0.128 ± 0.34.
Turning to UCAGAGCAAUAUUACGAAGA, the “self-splicing fitness (ln)” value (37 °C) is -2.32 ± 0.42.
In the case of AGCCAGCAAUAUUACGGCUC, the “self-splicing fitness (ln)” value is -2.52 ± 0.18 (30 °C) and -3.14 ± 0.31 (37 °C).
As for AAGGAGCAAUAUUACGACGG, under “37 °C”, the “self-splicing fitness (ln)” value is -0.954 ± 0.16.
Regarding UCAGAGCAAUAUUACGGUCA, the “self-splicing fitness (ln)” value (30 °C) was -1.72 ± 0.18 and the “self-splicing fitness (ln)” value (37 °C) was -2.42 ± 0.32.
The matching figures for ACUUAGCAAUAUUACGAGCC: -2.49 ± 0.3 and -1.26 ± 0.31.
The matching figures for AUCGAGCAAUAUUACGAUUG: -4.49 ± 0.46 and -3.32 ± 0.26.
Take GCAAAGCAAUAUUACGAGCA: the “self-splicing fitness (ln)” value is, setting by setting: (30 °C) -2.04 ± 0.095; (37 °C) -0.394 ± 0.08.
The matching figures for GGUUAGCAAUAUUACGCAUG: -1.89 ± 0.17 and -1.57 ± 0.14.
As to UGUGAGCAAUAUUACGCUGA, the “self-splicing fitness (ln)” value (30 °C) is -2.24 ± 0.46.
Regarding ACGGAGCAAUAUUACGACAU, the “self-splicing fitness (ln)” value is, setting by setting: (30 °C) -1.947 ± 0.018; (37 °C) -1.1 ± 0.035.
Turning to GCAGAGCAAUAUUACGGAGU, the “self-splicing fitness (ln)” value (30 °C) was -3.24 ± 0.2 and the “self-splicing fitness (ln)” value (37 °C) was -2.05 ± 0.27.
The matching figures for GGUUAGCAAUAUUACGAGUA: -4.51 ± 0.46 and -1.58 ± 0.2.
The matching figures for AGCCAGCAAUAUUACGGCGU: -1.61 ± 0.09 and -1.44 ± 0.12.
For CCUAAGCAAUAUUACGGUGC, the “self-splicing fitness (ln)” value runs as follows: (30 °C) -2.79 ± 0.28; (37 °C) -2.19 ± 0.32.
For UCGGAGCAAUAUUACGUCCU, in that order: -1.79 ± 0.17 and -0.83 ± 0.25.
On to AGAUAGCAAUAUUACGUGCU, for which the “self-splicing fitness (ln)” value by setting is: (30 °C) -1.39 ± 0.1; (37 °C) -0.664 ± 0.12.
Consider CUUUAGCAAUAUUACGGAAU, for which the “self-splicing fitness (ln)” value is -1.75 ± 0.23 (30 °C) and -1.73 ± 0.36 (37 °C).
For UCACAGCAAUAUUACGGGCC, in that order: -3.95 ± 0.34 and -2.76 ± 0.33.
As to GCCGAGCAAUAUUACGCUGG, the “self-splicing fitness (ln)” value (37 °C) is -2.07 ± 0.33.
For UUCGAGCAAUAUUACGUACU, the “self-splicing fitness (ln)” value by setting is: (30 °C) -2.87 ± 0.42; (37 °C) -2.01 ± 0.36.
The matching figures for AGCAAGCAAUAUUACGGGUU: -1.67 ± 0.1 and -2.17 ± 0.14.
The matching figures for CAGCAGCAAUAUUACGUCCG: 0.0818 ± 0.076 and 0.283 ± 0.086.
The matching figures for CGGGAGCAAUAUUACGGAUU: -3.51 ± 0.33 and -1.27 ± 0.28.
In the case of GGAAAGCAAUAUUACGACUA, the “self-splicing fitness (ln)” value is, setting by setting: (30 °C) -0.62 ± 0.12; (37 °C) -0.129 ± 0.12.
The matching figures for CAGGAGCAAUAUUACGGAGU: -2.74 ± 0.17 and -2.21 ± 0.25.
The matching figures for UCGUAGCAAUAUUACGAGAU: -4.2 ± 0.42 and -2.6 ± 0.39.
For the sequence UUACAGCAAUAUUACGCCUA, the “self-splicing fitness (ln)” value reads like this: (30 °C) 0.181 ± 0.11; (37 °C) 0.542 ± 0.12.
In the case of AUACAGCAAUAUUACGGGGC, the “self-splicing fitness (ln)” value by setting is: (30 °C) -2.65 ± 0.12; (37 °C) -3.57 ± 0.2.
As to AAUGAGCAAUAUUACGCCAC, the “self-splicing fitness (ln)” value is, setting by setting: (30 °C) -1.83 ± 0.22; (37 °C) -2.41 ± 0.49.
The matching figures for CACUAGCAAUAUUACGGAUA: -2.41 ± 0.28 and -2.22 ± 0.28.
GCAAAGCAAUAUUACGGAAU: the “self-splicing fitness (ln)” value runs as follows: (30 °C) -2.6 ± 0.1; (37 °C) -0.938 ± 0.11.
For CUCAAGCAAUAUUACGCCCA, in that order: -3.18 ± 0.4 and -2.01 ± 0.47.
Consider GGUUAGCAAUAUUACGGUGG, for which, under “37 °C”, the “self-splicing fitness (ln)” value was -1.57 ± 0.31.
As to UCGCAGCAAUAUUACGCUUA, the “self-splicing fitness (ln)” value runs as follows: (30 °C) -1.67 ± 0.12; (37 °C) -0.94 ± 0.09.
For CGGGAGCAAUAUUACGUUGA, in that order: -3.82 ± 0.39 and -2 ± 0.23.
Turning to GAUAAGCAAUAUUACGCAAC, the “self-splicing fitness (ln)” value (37 °C) is -0.343 ± 0.46.
Consider UGACAGCAAUAUUACGGAAC, for which the “self-splicing fitness (ln)” value by setting is: (30 °C) -2.81 ± 0.24; (37 °C) -2.42 ± 0.24.
With ACAGAGCAAUAUUACGGGCU, the “self-splicing fitness (ln)” value (30 °C) is -3.02 ± 0.22 and the “self-splicing fitness (ln)” value (37 °C) was -2.58 ± 0.2.
For UUGAAGCAAUAUUACGAUUA, in that order: 0.283 ± 0.096 and -0.455 ± 0.096.
The matching figures for CGCCAGCAAUAUUACGCUGA: -3.51 ± 0.24 and -2.24 ± 0.28.
For the sequence AGCGAGCAAUAUUACGGGAC, the “self-splicing fitness (ln)” value (37 °C) is -2.99 ± 0.38.
In the case of UUUCAGCAAUAUUACGGUAC, the “self-splicing fitness (ln)” value was -1.9 ± 0.41 (30 °C) and -2.1 ± 0.26 (37 °C).
The matching figures for UCACAGCAAUAUUACGUUAA: -2.66 ± 0.12 and -1.83 ± 0.11.
For CGAAAGCAAUAUUACGACCC, in that order: -1.42 ± 0.2 and -0.478 ± 0.23.
On to AGGGAGCAAUAUUACGAGCU, for which, under “30 °C”, the “self-splicing fitness (ln)” value is -3.49 ± 0.29.
For the sequence CAUGAGCAAUAUUACGGAGC, the “self-splicing fitness (ln)” value is -3.21 ± 0.25 (30 °C) and -3.46 ± 0.35 (37 °C).
In the case of GAUAAGCAAUAUUACGUCUU, the “self-splicing fitness (ln)” value (30 °C) was -0.224 ± 0.069 and the “self-splicing fitness (ln)” value (37 °C) stood at 0.135 ± 0.088.
For AGAGAGCAAUAUUACGUAUU, in that order: -4.03 ± 0.35 and -3.1 ± 0.3.
Consider GCGAAGCAAUAUUACGUGCC, for which the “self-splicing fitness (ln)” value is -3.73 ± 0.18 (30 °C) and -3 ± 0.23 (37 °C).
